Assay results published in publication PMC3946040.

Assays:
[1] = target: AspBHI, modification-dependent restriction endonuclease from Azoarcus sp. BH72 (Azoarcus sp. BH72); test: crystal structure
[2] = target: AspBHI, modification-dependent restriction endonuclease from Azoarcus sp. BH72 (Azoarcus sp. BH72); test: SEC

stoichiometry N [1]: 4 | stoichiometry N [2]: 4
Substance: AspBHI, modification-dependent restriction endonuclease from Azoarcus sp. BH72 (enzyme)
